Measurements reported in the RNAGym collection of RNA variant scans (doi:10.7554/elife.90254).

B1: LINE1-mini (parent)
chain: GGCAGAGCUCAACACAGCGUGGCAAAGUGGCUGUGGCUAGACUGCC

Variants of: B1
Assay: self-cleavage, relative activity (ratio to wild type); higher = more cleavage; in vitro, sequencing; the parent is a self-cleaving ribozyme

| Variant | self-cleavage |
| --- | --- |
| GGCAGAGCUCAACACAGCGUGGCAAAGUGGCUGUGGAUAGACUACC | 0.13 |
| GGCAGAGUUCAACACAGGGUGGCAAAGUGGCUGUGGCUAGACUGCC | 0.23 |
| UGCAGAGCCCAACACAGCGUGGCAAAGUGGCUGUGGCUAGACUGCC | 0.02 |
| GGCAGAGCUCAACACAGCGUGCCAGAGUGGCUGUGGCUAGACUGCC | 1.07 |
| GGCAGAGCUCAACACAGCGUGGCAAAGUGGCGGCGGCUAGACUGCC | 0.06 |
| GGCAGAGCUCAACACAGCGUGGCAAUGUCGCUGUGGCUAGACUGCC | 0.35 |
| GGCAGAGCUCAACACAGCGUGGCAAUGUAGCUGUGGCUAGACUGCC | 1.35 |
| GGCAGAGCUCAACGCAGCGUGGCAAAGUGGCAGUGGCUAGACUGCC | 0.06 |
| GGCAGAGCUCAACACAGAGUGGCAAAGUGGGUGUGGCUAGACUGCC | 0.04 |
| GGCAGAGCUCAACACAGCUUGGCAAAGGGGCUGUGGCUAGACUGCC | 0.73 |
| GGCAGCGCUCAACACAGCGUGGCGAAGUGGCUGUGGCUAGACUGCC | 0.49 |
| GGCAGAGCUCAAGACAGCGUGGCAAAGUGCCUGUGGCUAGACUGCC | 0.12 |
| GGCAGAGCUCAACACAACGUGGCAAAGUGGCUGUGGCUACACUGCC | 0.09 |
| GGCAGUGCUCAACACAGCGUGGCAAAGUGGCUGCGGCUAGACUGCC | 0.12 |
| GGCAGAGCUCAACACAGCGUGGCAAAGUGGCCGUGGCUAGACUACC | 0.07 |
| GGCAGAGCUCAACACAGUGUGGCAAAGUGGCUGUGGCUAGACUGAC | 0.79 |
| CGCAGAGCUCAACACAUCGUGGCAAAGUGGCUGUGGCUAGACUGCC | 0.02 |
| CGCAGAGCUCAACACAGCUUGGCAAAGUGGCUGUGGCUAGACUGCC | 0.06 |
| GGCAGAGCUCAACACAGCGUGGCAAAAUGGCUGUGGAUAGACUGCC | 0.05 |

| Variant | self-cleavage |
| --- | --- |
| GGCAGAGCUCAACACCGCGUGGCCAAGUGGCUGUGGCUAGACUGCC | 0.07 |
| GGCAGAGCUCAACACAGAGUGGCAAAGUGGCUGUGGGUAGACUGCC | 0.07 |
| GGCAGGGCUCAACACAGCGUGGCAAGGUGGCUGUGGCUAGACUGCC | 0.1 |
| GGCAGAGGUCAACACAGCAUGGCAAAGUGGCUGUGGCUAGACUGCC | 0.15 |
| GGCAGAGCUCAACACAGCGUGGCAAAGUGUCUGUGGCAAGACUGCC | 1 |
| GGCAGAGCUCAACACAGCUUGGCAAAGUGGCUGUGGCUAUACUGCC | 0.1 |
| GGCAGAGCUCAACAAAACGUGGCAAAGUGGCUGUGGCUAGACUGCC | 0.14 |
| GGCAGAGCUCAACACAGCGUGGCAAUGCGGCUGUGGCUAGACUGCC | 0.74 |
| GGCAGAGCUCAACACAGCGUGGCAAAAUGGCUUUGGCUAGACUGCC | 0.17 |
| GGCAGAGGUCAACACAGCGUGGUAAAGUGGCUGUGGCUAGACUGCC | 0.1 |
| GGCAGAGCUCAACAAAGCGUGGCAAAGUGGCUGUGGCUUGACUGCC | 0.06 |
| GGCACAGCUCAACACAGCGUAGCAAAGUGGCUGUGGCUAGACUGCC | 0.1 |
| GGCAGAGCUCAAGACAGCGUGGCACAGUGGCUGUGGCUAGACUGCC | 0.18 |
| GGCAGAGCUCAACCCAGCGUGGCAAAGUGGGUGUGGCUAGACUGCC | 0.03 |
| GGCAGUGCUCAACACAGCGUGGCAAAGUGGCUGUGACUAGACUGCC | 0.26 |
| GGCAGAGCUCAACACAGCGUGGCAAAGUGGAUGUGGCUAGAUUGCC | 0.05 |
| GGCAGAGCUCAUCACAGCGUGGAAAAGUGGCUGUGGCUAGACUGCC | 0.27 |
| GGCAGAGCUCAACACAGCGUGGGAAAGUGGCUGUGUCUAGACUGCC | 0.07 |
| GGCAGAACUCACCACAGCGUGGCAAAGUGGCUGUGGCUAGACUGCC | 0.02 |

| Variant | self-cleavage |
| --- | --- |
| GGCAGUGCUCAACACAGCGGGGCAAAGUGGCUGUGGCUAGACUGCC | 0.55 |
| GGCAGAGCUCAACACAGCGUGGCAAAGUGGCUGUGCCUAGACUGAC | 0.07 |
| GGCAGAGCACGACACAGCGUGGCAAAGUGGCUGUGGCUAGACUGCC | 0.03 |
| GGCAGAGCUCAACACAUCGUGGCAAAGUGGCUGUGGCUAGACUACC | 0.07 |
| GGCAGAGCUCAACACAGCGUGGCAAAGUGGCAGUGGCUAGACUGAC | 0.11 |
| GGCAGAGCUCAACACAGCGUGGCAAAGUGGCUGUGCCUAAACUGCC | 0.09 |
| GGCAGAGCUCAACACAGCAUGGCAAAGUGGCUGUGGUUAGACUGCC | 0.05 |
| GGCAGAGCUCAACACAGCGUGGCAAAGAGGCUGUGGCUAGACUGCU | 0.66 |
| GGCAGAGCUCAACACAGCGUGGCUAAAUGGCUGUGGCUAGACUGCC | 0.92 |
| GGCAGAGCUCAACACAGCGUGGCAAAGUCGCUGUGGCUGGACUGCC | 0.03 |
| GGCAGAGCUCAACACAGCGUGGCAAAGUGGCUGUGACUAGACUGAC | 0.14 |
| GGCAUAGCUCAACACAGCCUGGCAAAGUGGCUGUGGCUAGACUGCC | 0.05 |
| AGCAGAGCUCAACACAGCGUGGCAAAGUGGCUUUGGCUAGACUGCC | 0.09 |
| GGCAGAGCUCAACACAGCGUGGUAAAGUGGCUGCGGCUAGACUGCC | 0.62 |
| GGCACAGCUCAACACAGCGUGGCAAAGUGGCUGUGGCUAGACUGCA | 0.09 |
| UGCAGAGCUCAACACAGCGUGGCAAAGUGGCUGUGGGUAGACUGCC | 0.03 |
| GACAGAGCUCAACACAGCGUGGCAAAGUCGCUGUGGCUAGACUGCC | 0.65 |
| GGCAGAGUUCAACACAGCGUGGCAAAGUGGCUGUGACUAGACUGCC | 0.77 |
